target: AP2-I D3 (Plasmodium falciparum, UniProt Q8IJW6 910-1027); assay: gcPBM; about 25 ug protein; PBS, 1% milk, 0.2 mg/ml BSA, salmon testes DNA, 0.03% Triton X-100; conditions: tags: N-terminal GST (pGEX-4T-1), kept; label: surface-attached array probe

Binder	binding signal
GTGCAC_site10087 (dsDNA) DNA 1: TGTCACTACAAATGAGTGCATTAAATAATTTGGAAA DNA 2: TTTCCAAATTATTTAATGCACTCATTTGTAGTGACA	12 ln median PBM intensity, better of two orientations
GTGCAC_site10675 (dsDNA) DNA 1: GTAGTTATATTAAGGGTGCTTAATTAGATTAAACAA DNA 2: TTGTTTAATCTAATTAAGCACCCTTAATATAACTAC	10.8 ln median PBM intensity, better of two orientations
GTGCAC_site10233 (dsDNA) DNA 1: TTTTTTAAATTTAAAGTGCATTATTATATATTTGTA DNA 2: TACAAATATATAATAATGCACTTTAAATTTAAAAAA	12 ln median PBM intensity, better of two orientations
GTGCAC_site9564 (dsDNA) DNA 1: GAAAATTTAAAAAGAGTGCATTATATGTTTGAATAT DNA 2: ATATTCAAACATATAATGCACTCTTTTTAAATTTTC	12 ln median PBM intensity, better of two orientations
GTGCAC_site10757 (dsDNA) DNA 1: TATTAATTTCGGGAAGTGCATTATGTTTATAGAATA DNA 2: TATTCTATAAACATAATGCACTTCCCGAAATTAATA	11.7 ln median PBM intensity, better of two orientations
GTGCAC_site9970 (dsDNA) DNA 1: ACTGTAATATTGAAAGTGCATTAAAGTGTATATTAT DNA 2: ATAATATACACTTTAATGCACTTTCAATATTACAGT	12 ln median PBM intensity, better of two orientations
GTGCAC_site10692 (dsDNA) DNA 1: ATTATTTATATTATGGTGCATAATTTTGGGTTTCTT DNA 2: AAGAAACCCAAAATTATGCACCATAATATAAATAAT	11.6 ln median PBM intensity, better of two orientations
GTGCAC_site10322 (dsDNA) DNA 1: TTTTTTTTTTTGTGAGTGCACGTATGAAGAGAAAAA DNA 2: TTTTTCTCTTCATACGTGCACTCACAAAAAAAAAAA	11.2 ln median PBM intensity, better of two orientations
GTGCAC_site10026 (dsDNA) DNA 1: ATATAAGTATTTTGAATGCACTTTCTTTTTTTTTTT DNA 2: AAAAAAAAAAAGAAAGTGCATTCAAAATACTTATAT	10.5 ln median PBM intensity, better of two orientations
GTGCAC_site10036 (dsDNA) DNA 1: TCATAGGGGTAGAAGGTGCAATAAAAAAGAAGAAAA DNA 2: TTTTCTTCTTTTTTATTGCACCTTCTACCCCTATGA	12 ln median PBM intensity, better of two orientations
GTGCAC_site10102 (dsDNA) DNA 1: TATATTTATATATTAGTGCACTTTTTGTTAATTTTT DNA 2: AAAAATTAACAAAAAGTGCACTAATATATAAATATA	11.8 ln median PBM intensity, better of two orientations
GTGCAC_site10309 (dsDNA) DNA 1: GTTAATTTTTGTATAGTGCAAAAATATAATAGTATG DNA 2: CATACTATTATATTTTTGCACTATACAAAAATTAAC	10.6 ln median PBM intensity, better of two orientations
GTGCAC_site9974 (dsDNA) DNA 1: ATATGAAGTTATATAGTGCACATGTACAACCAAATC DNA 2: GATTTGGTTGTACATGTGCACTATATAACTTCATAT	11.4 ln median PBM intensity, better of two orientations
GTGCAC_site10062 (dsDNA) DNA 1: TCTATTTTCTTATGAATGCACTAATTTATAAAACGT DNA 2: ACGTTTTATAAATTAGTGCATTCATAAGAAAATAGA	10.8 ln median PBM intensity, better of two orientations
GTGCAC_site10204 (dsDNA) DNA 1: GGAAAATACATTCCAGTGCATTAATTTATTCAACGT DNA 2: ACGTTGAATAAATTAATGCACTGGAATGTATTTTCC	11.8 ln median PBM intensity, better of two orientations
GTGCAC_site10494 (dsDNA) DNA 1: AATATATAGGAAAAAGTGCAATAAATGAACAAAATA DNA 2: TATTTTGTTCATTTATTGCACTTTTTCCTATATATT	11.3 ln median PBM intensity, better of two orientations
GTGCAC_site9804 (dsDNA) DNA 1: TCAAAAGAATAATTGGTGCAAATTATATAATATAAT DNA 2: ATTATATTATATAATTTGCACCAATTATTCTTTTGA	10.8 ln median PBM intensity, better of two orientations
GTGCAC_site10781 (dsDNA) DNA 1: ACATTTTTGGTTTTAGTGCAATATGAATTATTTTAT DNA 2: ATAAAATAATTCATATTGCACTAAAACCAAAAATGT	11 ln median PBM intensity, better of two orientations
GTGCAC_site9995 (dsDNA) DNA 1: AAAGGAAAAATCCAAGTGCATTATTATTTTCACAAA DNA 2: TTTGTGAAAATAATAATGCACTTGGATTTTTCCTTT	11.4 ln median PBM intensity, better of two orientations
GTGCAC_site9926 (dsDNA) DNA 1: GCAGCAGCATTTTCAGTGCATTATTATATTGTTCAT DNA 2: ATGAACAATATAATAATGCACTGAAAATGCTGCTGC	11.6 ln median PBM intensity, better of two orientations
GTGCAC_site9873 (dsDNA) DNA 1: CCCTCCCCATGTTTAGTGCAAAAATATTTGAAATTG DNA 2: CAATTTCAAATATTTTTGCACTAAACATGGGGAGGG	10.9 ln median PBM intensity, better of two orientations
GTGCAC_site10266 (dsDNA) DNA 1: TCTTAAAATATATAGGTGCAAAAAAAAAAAAAAAAA DNA 2: TTTTTTTTTTTTTTTTTGCACCTATATATTTTAAGA	10.9 ln median PBM intensity, better of two orientations

Binder	binding signal
GTGCAC_site9462 (dsDNA) DNA 1: AACTGTACAATTTTTGTGCACAATAATTATTAATAT DNA 2: ATATTAATAATTATTGTGCACAAAAATTGTACAGTT	11.3 ln median PBM intensity, better of two orientations
GTGCAC_site10615 (dsDNA) DNA 1: ATTTTTTTTGTAAAAGTGCATATATATATATATATA DNA 2: TATATATATATATATATGCACTTTTACAAAAAAAAT	10.5 ln median PBM intensity, better of two orientations
GTGCAC_site9852 (dsDNA) DNA 1: ATAATATATAATATAGTGCATTATTTATTAATTAAT DNA 2: ATTAATTAATAAATAATGCACTATATTATATATTAT	12 ln median PBM intensity, better of two orientations
GTGCAC_site9491 (dsDNA) DNA 1: AATAATAAAATAAAAGTGCATTAATTATAATTCTTT DNA 2: AAAGAATTATAATTAATGCACTTTTATTTTATTATT	11.9 ln median PBM intensity, better of two orientations
GTGCAC_site10551 (dsDNA) DNA 1: ATATATAAAAATTAGGTGCATTAAATTAAAATATAT DNA 2: ATATATTTTAATTTAATGCACCTAATTTTTATATAT	12 ln median PBM intensity, better of two orientations
GTGCAC_site9443 (dsDNA) DNA 1: ACCATATATTAAAAAGTGCATTAAATATATAAATAT DNA 2: ATATTTATATATTTAATGCACTTTTTAATATATGGT	12 ln median PBM intensity, better of two orientations
GTGCAC_site10697 (dsDNA) DNA 1: AATATTTCTCATTTTGTGCACTGAAAAATGTAATAT DNA 2: ATATTACATTTTTCAGTGCACAAAATGAGAAATATT	11 ln median PBM intensity, better of two orientations
GTGCAC_site9423 (dsDNA) DNA 1: ACACATACACATTAGGTGCATATATTTCAATATTAC DNA 2: GTAATATTGAAATATATGCACCTAATGTGTATGTGT	10.6 ln median PBM intensity, better of two orientations
GTGCAC_site10703 (dsDNA) DNA 1: TTTTTAATTTCAATGGTGCAGTAATAATATAATAGT DNA 2: ACTATTATATTATTACTGCACCATTGAAATTAAAAA	12 ln median PBM intensity, better of two orientations
GTGCAC_site10687 (dsDNA) DNA 1: TATATATATTATATAGTGCATTGAAGAAGGGGATTT DNA 2: AAATCCCCTTCTTCAATGCACTATATAATATATATA	11.1 ln median PBM intensity, better of two orientations
GTGCAC_site9508 (dsDNA) DNA 1: TAATAAAAAGTTGAGGTGCATATAGAGTTCTTCTTT DNA 2: AAAGAAGAACTCTATATGCACCTCAACTTTTTATTA	10.5 ln median PBM intensity, better of two orientations
GTGCAC_site10160 (dsDNA) DNA 1: ATTCATTTACCAATGGTGCAATATATTTTTATAATG DNA 2: CATTATAAAAATATATTGCACCATTGGTAAATGAAT	12 ln median PBM intensity, better of two orientations
GTGCAC_site10028 (dsDNA) DNA 1: ATTATAATTACTCTAGTGCATTATAAATATGAATAA DNA 2: TTATTCATATTTATAATGCACTAGAGTAATTATAAT	12 ln median PBM intensity, better of two orientations
GTGCAC_site9626 (dsDNA) DNA 1: TTTATTAATAAAAAGGTGCAATCAGGAAAAATTATC DNA 2: GATAATTTTTCCTGATTGCACCTTTTTATTAATAAA	10.7 ln median PBM intensity, better of two orientations
GTGCAC_site9467 (dsDNA) DNA 1: AAATAATGAAACAAAGTGCATAAAAATATACATATA DNA 2: TATATGTATATTTTTATGCACTTTGTTTCATTATTT	10.6 ln median PBM intensity, better of two orientations
GTGCAC_site9607 (dsDNA) DNA 1: TATTCAGGTCCAATGGTGCAATATATTTTTGTAATA DNA 2: TATTACAAAAATATATTGCACCATTGGACCTGAATA	12 ln median PBM intensity, better of two orientations
GTGCAC_site9417 (dsDNA) DNA 1: TAATATTATTTTTCAGTGCAATATAACCTTAGAATT DNA 2: AATTCTAAGGTTATATTGCACTGAAAAATAATATTA	11.3 ln median PBM intensity, better of two orientations
GTGCAC_site9746 (dsDNA) DNA 1: TATAATTAATTAGAAGTGCATTAGGTAACAACTGTC DNA 2: GACAGTTGTTACCTAATGCACTTCTAATTAATTATA	11.5 ln median PBM intensity, better of two orientations
GTGCAC_site10289 (dsDNA) DNA 1: TTTAAAATACAGAAGGTGCATTTAACATATTTGTAT DNA 2: ATACAAATATGTTAAATGCACCTTCTGTATTTTAAA	11.6 ln median PBM intensity, better of two orientations
GTGCAC_site9938 (dsDNA) DNA 1: GAATTATAAATTATAGTGCATAAAATTATGGCATAA DNA 2: TTATGCCATAATTTTATGCACTATAATTTATAATTC	10.8 ln median PBM intensity, better of two orientations
GTGCAC_site9773 (dsDNA) DNA 1: TTAAAAATTATATAAGTGCATTAATATTTAGAACAA DNA 2: TTGTTCTAAATATTAATGCACTTATATAATTTTTAA	12 ln median PBM intensity, better of two orientations
GTGCAC_site9803 (dsDNA) DNA 1: GTAGTAATAAATCTAGTGCATTATATATAACAAAAA DNA 2: TTTTTGTTATATATAATGCACTAGATTTATTACTAC	12 ln median PBM intensity, better of two orientations
